Results on two proteins are retold here after paper doi:10.1101/2024.03.26.586525 (bioRxiv, 2024).

Like-named read-outs stand apart in the source and are kept apart here.

Series [1] concerns the molecule itself. Description: cryo-EM structure.
Series [2] deals with the molecule itself. Description: cryo-EM structure. This is another data set of the same source.

B1: acetyl-coenzyme A synthetase 1 (Acs1) (enzyme, S. cerevisiae (endogenous in SK1 cells), UniProt Q01574 1-713, looked up)
chain: MSPSAVQSSKLEEQSSEIDKLKAKMSQSAATAQQKKEHEYEHLTSVKIVPQRPISDRLQPAIATHYSPHLDGLQDYQRLHKESIEDPAKFFGSKATQFLNWSKPFDKVFIPDPKTGRPSFQNNAWFLNGQLNACYNCVDRHALKTPNKKAIIFEGDEPGQGYSITYKELLEEVCQVAQVLTYSMGVRKGDTVAVYMPMVPEAIITLLAISRIGAIHSVVFAGFSSNSLRDRINDGDSKVVITTDESNRGGKVIETKRIVDDALRETPGVRHVLVYRKTNNPSVAFHAPRDLDWATEKKKYKTYYPCTPVDSEDPLFLLYTSGSTGAPKGVQHSTAGYLLGALLTMRYTFDTHQEDVFFTAGDIGWITGHTYVVYGPLLYGCATLVFEGTPAYPNYSRYWDIIDEHKVTQFYVAPTALRLLKRAGDSYIENHSLKSLRCLGSVGEPIAAEVWEWYSEKIGKNEIPIVDTYWQTESGSHLVTPLAGGVTPMKPGSASFPFFGIDAVVLDPNTGEELNTSHAEGVLAVKAAWPSFARTIWKNHDRYLDTYLNPYPGYYFTGDGAAKDKDGYIWILGRVDDVVNVSGHRLSTAEIEAAIIEDPIVAECAVVGFNDDLTGQAVAAFVVLKNKSSWSTATDDELQDIKKHLVFTVRKDIGPFAAPKLIILVDDLPKTRSGKIMRRILRKILAGESDQLGDVSTLSNPGIVRHLIDSVKL
In the case of B1, the stoichiometry N (usually a count of units in the complex or per binding partner) in series [1] is 3.

B2: aldehyde dehydrogenase 4 (Ald4) (enzyme, S. cerevisiae (endogenous in SK1 cells), UniProt P46367 25-519, looked up)
chain: SHLPMTVPIKLPNGLEYEQPTGLFINNKFVPSKQNKTFEVINPSTEEEICHIYEGREDDVEEAVQAADRAFSNGSWNGIDPIDRGKALYRLAELIEQDKDVIASIETLDNGKAISSSRGDVDLVINYLKSSAGFADKIDGRMIDTGRTHFSYTKRQPLGVCGQIIPWNFPLLMWAWKIAPALVTGNTVVLKTAESTPLSALYVSKYIPQAGIPPGVINIVSGFGKIVGEAITNHPKIKKVAFTGSTATGRHIYQSAAAGLKKVTLELGGKSPNIVFADAELKKAVQNIILGIYYNSGEVCCAGSRVYVEESIYDKFIEEFKAASESIKVGDPFDESTFQGAQTSQMQLNKILKYVDIGKNEGATLITGGERLGSKGYFIKPTVFGDVKEDMRIVKEEIFGPVVTVTKFKSADEVINMANDSEYGLAAGIHTSNINTALKVADRVNAGTVWINTYNDFHHAVPFGGFNASGLGREMSVDALQNYLQVKAVRAKLDE
For the protein B2, the “stoichiometry N” value in series [2] was 4.
